{"source": "patent US20190144498A1", "about": "(Johns Hopkins, published 2019)", "binders": {"B1": {"name": "Ac-VRMA-B(OH)2 (peptide)", "peptide": "Ac-VRMA-{B(OH)2}", "SMILES": "CSCC[C@H](NC(=O)[C@H](CCCNC(=N)N)NC(=O)[C@@H](NC(C)=O)C(C)C)C(=O)N[C@@H](C)C(=O)B(O)O"}}, "target": "T1, endogenous GlpG in living E. coli cells (Escherichia coli, UniProt P09391 1-276)", "T1 sequence (looked up)": "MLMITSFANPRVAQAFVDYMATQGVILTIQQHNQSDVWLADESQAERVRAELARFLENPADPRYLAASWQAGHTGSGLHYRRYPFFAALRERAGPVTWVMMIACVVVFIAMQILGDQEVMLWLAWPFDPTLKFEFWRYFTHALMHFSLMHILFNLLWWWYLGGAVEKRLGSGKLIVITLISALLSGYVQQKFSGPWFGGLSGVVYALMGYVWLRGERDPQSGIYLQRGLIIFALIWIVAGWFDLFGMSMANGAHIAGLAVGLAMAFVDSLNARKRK", "experiment": "cell-based or functional assay", "note": "* marks the point of attachment. B(OH)2 = OB(O)*"}
{"binder": "B1", "values": [{"measurement": "EC50 of inhibition of endogenous GlpG activity (TatA-Flag cleavage) in living E. coli cells", "result": "< 1000", "unit": "nM"}, {"measurement": "fold increase in potency of GlpG inhibition relative to the aldehyde (Ac-VRMA-CHO)", "result": "> 100", "unit": "fold"}, {"measurement": "fold increase in potency of GlpG inhibition relative to the chloromethylketone (Ac-VRMA-CMK)", "result": "> 400", "unit": "fold"}]}
